Target: Homer1, Q9Z214-1
Sequence (Q9Z214 whole entry): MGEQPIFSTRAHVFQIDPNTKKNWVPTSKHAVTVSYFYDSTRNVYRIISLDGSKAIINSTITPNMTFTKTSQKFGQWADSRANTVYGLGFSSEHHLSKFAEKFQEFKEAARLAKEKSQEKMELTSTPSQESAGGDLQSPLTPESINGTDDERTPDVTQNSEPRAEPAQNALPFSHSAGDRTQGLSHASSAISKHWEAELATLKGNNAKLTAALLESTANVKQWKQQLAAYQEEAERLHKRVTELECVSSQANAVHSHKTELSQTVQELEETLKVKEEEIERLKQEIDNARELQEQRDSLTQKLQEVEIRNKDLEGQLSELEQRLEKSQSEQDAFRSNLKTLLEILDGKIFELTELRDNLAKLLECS

effect of a mutation on the interaction: disrupting interaction
Substance: Arf-GAP with GTPase, ANK repeat and PH domain-containing protein 2 (Rattus norvegicus (Rat)), Q8CGU4 P187L
